The values that follow come from PMC9848473, “The structure of DarB in complex with Rel^NTD reveals nonribosomal activation of Rel stringent factors” (Science Advances, 2023).

This assay addresses full-length Bacillus subtilis Rel (RelBs) (Bacillus subtilis). Kind of assay: cell-based or functional assay.

B1: Bacillus subtilis DarB (natural protein, UniProt O31698 1-147, looked up)
chain: MISLQSDQLLEATVGQFMIEADKVAHVQVGNNLEHALLVLTKTGYTAIPVLDPSYRLHGLIGTNMIMNSIFGLERIEFEKLDQITVEEVMLTDIPRLHINDPIMKGFGMVINNGFVCVENDEQVFEGIFTRRVVLKELNKHIRSLNK
As to B1, the “rate of ^3H-ppGpp hydrolysis by RelBs saturated with DarB” value was 5.5 fold.
